We go through 37 sequences from the supplement of paper PMC7877785.

The data set in a line: self-splicing fitness, log relative to wild type (ln ratio); higher = more splicing; Tetrahymena group I intron in knt gene, E. coli kanamycin selection, DiMSum; sequences stand for … in CUCUCU…GGAGGGAAAAGUUAUCAGGCAUGCACCUGGUAGCUAGUCUUUAAACCAAUAGAUUGCAUCGGUUUAAAAGGCAAGACCGUCAAAUUGCGGGAAAGGGGUCAACAGCCGUUCAGUACCAAGUCUCAGGGGAAACUUUGAGAUGGCCUUGCAAAGGGUAUGGUAAUAAGCUGACGGACAUGGUCCUAACCACGCAGCCAAGUCCUAAGUCAACAGAUCUUCUGUUGAUAUGGAUGCAGUUCACAGACUAAAUGUCGGUCGGGGAAGAUGUAUUCUUCUCAUAAGAUAUAGUCGGACCUCUCCUUAAUGGGAGCUAGCGGAUGAAGUGAUGCAACACUGGAGCCGCUGGGAACUAAUUUGUAUGCGAAAGUAUAUUGAUUAGUUUUGGAGUACUCGUGGUCG
The method, boiled down: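 A randomised library covering all eight P1ex-region intron nucleotides was built with the intron in the knt kanamycin-resistance gene on pET-22b(+) and held in E. coli BL21(DE3). Cells were grown overnight at 37°C or 30°C on LB agar, with or without 25 μg/mL kanamycin, plus 100 μg/mL carbenicillin, 50 μM IPTG and 0.2% rhamnose, and pooled colonies were amplicon-sequenced on an Illumina HiSeq 2500. DiMSum fitness is the error-weighted combination of wild-type-normalised replicate fold changes, kanamycin versus none.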

± gives the uncertainty stated by the source.

Consider CAAAAGCAAUAUUACGCUUC, for which the “self-splicing fitness (ln)” value was -3.84 ± 0.33 (30 °C) and -1.99 ± 0.24 (37 °C).
As to CAAAAGCAAUAUUACGGCCC, the “self-splicing fitness (ln)” value (30 °C) is -2.01 ± 0.31 and the “self-splicing fitness (ln)” value (37 °C) was -1.06 ± 0.3.
The like results for CAAAAGCAAUAUUACGGCUU were, in that order, -3.44 ± 0.11 and -2.39 ± 0.11.
The like results for CAAAAGCAAUAUUACGGUAU were, in that order, -3.42 ± 0.15 and -2.67 ± 0.15.
The like results for CAAAAGCAAUAUUACGUAAA were, in that order, -1.47 ± 0.092 and -1.32 ± 0.11.
For the sequence CAAAAGCAAUAUUACGUAUU, the “self-splicing fitness (ln)” value runs as follows: (30 °C) -4.13 ± 0.18; (37 °C) -2.78 ± 0.15.
The like results for CAAAAGCAAUAUUACGUGUU were, in that order, -3.61 ± 0.13 and -2.37 ± 0.13.
The like results for CAAAAGCAAUAUUACGUUCA were, in that order, -1.67 ± 0.11 and -0.976 ± 0.1.
As for CAAAAGCAAUAUUACGUUGU, the “self-splicing fitness (ln)” value runs as follows: (30 °C) -3.3 ± 0.11; (37 °C) -2.4 ± 0.14.
The like results for CAAAAGCAAUAUUACGUUUG were, in that order, -3.08 ± 0.14 and -2.55 ± 0.18.
The like results for CAACAGCAAUAUUACGAAUC were, in that order, -3.47 ± 0.13 and -2.41 ± 0.14.
Turning to CAACAGCAAUAUUACGACCA, the “self-splicing fitness (ln)” value runs as follows: (30 °C) -1.66 ± 0.099; (37 °C) -0.585 ± 0.097.
The like results for CAACAGCAAUAUUACGACGU were, in that order, -0.776 ± 0.042 and -0.12 ± 0.054.
The like results for CAACAGCAAUAUUACGAGCC were, in that order, -3.76 ± 0.46 and -1.95 ± 0.29.
The like results for CAACAGCAAUAUUACGAUAA were, in that order, -2.08 ± 0.1 and -1.67 ± 0.11.
As for CAACAGCAAUAUUACGAUCU, the “self-splicing fitness (ln)” value was -2.02 ± 0.13 (30 °C) and -0.986 ± 0.12 (37 °C).
Regarding CAACAGCAAUAUUACGAUGG, the “self-splicing fitness (ln)” value runs as follows: (30 °C) -0.426 ± 0.056; (37 °C) 0.257 ± 0.075.
The like results for CAACAGCAAUAUUACGGCCA were, in that order, -2.55 ± 0.15 and -1.59 ± 0.14.
In the case of CAACAGCAAUAUUACGGCUC, the “self-splicing fitness (ln)” value reads like this: (30 °C) -1.38 ± 0.078; (37 °C) -0.333 ± 0.098.
The like results for CAACAGCAAUAUUACGGGGA were, in that order, -2.24 ± 0.093 and -2.14 ± 0.11.
The like results for CAACAGCAAUAUUACGGGGU were, in that order, -4.57 ± 0.23 and -2.79 ± 0.15.
The like results for CAACAGCAAUAUUACGGUAG were, in that order, -0.633 ± 0.059 and -0.746 ± 0.068.
In the case of CAACAGCAAUAUUACGUCGC, the “self-splicing fitness (ln)” value (30 °C) was -2.75 ± 0.17 and the “self-splicing fitness (ln)” value (37 °C) was -2.07 ± 0.18.
The like results for CAACAGCAAUAUUACGUGCA were, in that order, -2.72 ± 0.11 and -1.57 ± 0.092.
The like results for CAACAGCAAUAUUACGUUGG were, in that order, -2.86 ± 0.096 and -1.5 ± 0.095.
The like results for CAACAGCAAUAUUACGUUUG were, in that order, -3.3 ± 0.077 and -2.11 ± 0.094.
Consider CAACAGCAAUAUUACGUUUU, for which the “self-splicing fitness (ln)” value reads like this: (30 °C) -3.57 ± 0.11; (37 °C) -2.19 ± 0.11.
As for CAAGAGCAAUAUUACGAAUC, the “self-splicing fitness (ln)” value is -3.46 ± 0.41 (30 °C) and -1.26 ± 0.38 (37 °C).
The like results for CAAGAGCAAUAUUACGAGCC were, in that order, -4.42 ± 0.34 and -2.31 ± 0.32.
The like results for CAAGAGCAAUAUUACGAUAG were, in that order, -1.53 ± 0.11 and -0.239 ± 0.13.
The like results for CAAGAGCAAUAUUACGAUUG were, in that order, -2.26 ± 0.13 and -1.86 ± 0.15.
For the sequence CAAGAGCAAUAUUACGCAUA, the “self-splicing fitness (ln)” value runs as follows: (30 °C) -2.71 ± 0.31; (37 °C) -2.3 ± 0.37.
The like results for CAAGAGCAAUAUUACGCGUU were, in that order, -3.61 ± 0.22 and -3.05 ± 0.25.
On to CAAGAGCAAUAUUACGCUAC, for which the “self-splicing fitness (ln)” value (30 °C) is -2.4 ± 0.26 and the “self-splicing fitness (ln)” value (37 °C) is -1.66 ± 0.38.
On to CAAGAGCAAUAUUACGCUCA, for which the “self-splicing fitness (ln)” value runs as follows: (30 °C) -2.63 ± 0.17; (37 °C) -1.08 ± 0.2.
The like results for CAAGAGCAAUAUUACGCUCG were, in that order, -2.16 ± 0.44 and -1.26 ± 0.41.
The like results for CAAGAGCAAUAUUACGGAAG were, in that order, -1.75 ± 0.13 and -1.31 ± 0.19.
